Here are results for three molecules from patent US20190085314A1 (SAINT LOUIS UNIVERSITY, published 2019).

The target of assay [1] is AtUBC8 (Arabidopsis thaliana ubiquitin conjugating enzyme E2 8), 6xHIS-tagged (Arabidopsis thaliana) (UniProt P35131). The assay can be described thus: interface area calculated for residues 74-82 of AtMUB3 within the co-crystal structure.
Assay [2] has the same target. The assay can be described thus: Delta G calculated for residues 74-82 of AtMUB3 within the co-crystal structure; unit not given.
For assay [3], the target named is T1, AtUBC8 (Arabidopsis thaliana ubiquitin conjugating enzyme E2 8), 6xHIS-tagged (Arabidopsis thaliana, UniProt P35131 1-148).
T1 construct: The crystal model holds residues 1-147/1-148; also called AtUBC08; not shown: 6xHIS tag
T1 sequence (P35131 whole entry, the tested form may be a part): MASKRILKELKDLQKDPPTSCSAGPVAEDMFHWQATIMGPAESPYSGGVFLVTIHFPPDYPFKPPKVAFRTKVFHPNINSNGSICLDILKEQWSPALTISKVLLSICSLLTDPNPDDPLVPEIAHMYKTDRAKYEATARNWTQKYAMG
Kind of assay: Isothermal titration calorimetry (MicroCal iTC200), 110 uM AtMUB3 titrated into 8 uM AtUBC8, OneSites model; 25 mM HEPES pH 7.5, 200 mM NaCl, 1 mM TCEP. As for the experimental part:
FIG. 13. […] Proteins were purified as described for crystallization and dialyzed extensively against a buffer containing 25 mM HEPES, pH 7.5, 200 mM NaCl, 1 mM TCEP. Data was processed with MicroCal Origin 7 software, and normalized against the dialysis buffer's heat of dilution.

For assay [4], the target named is T2, biotinylated E2 (Ube2D3), from the E1/E2 Lite kit (LifeSensors) (UniProt P61077 1-147, limits assumed, biotinylated (site not stated); labelled with streptavidin-terbium in the assay).
T2 construct: Bought kit reagent; also called biotinylated Ube2D3
T2 sequence (P61077 whole entry): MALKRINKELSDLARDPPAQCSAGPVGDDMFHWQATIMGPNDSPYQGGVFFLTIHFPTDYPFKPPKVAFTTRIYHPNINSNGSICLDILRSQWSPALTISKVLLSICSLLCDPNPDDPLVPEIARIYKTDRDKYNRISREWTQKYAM
The assay can be described thus: HTRF-FRET E2 activation assay; initial velocity against HsMUB concentration, one-site binding fit; IC50 equal to Ki under limiting E2.

Chain of AtUBC8 (Arabidopsis thaliana ubiquitin conjugating enzyme E2 8), 6xHIS-tagged (Arabidopsis thaliana) (P35131 whole entry, the tested form may be a part): as the sequence (P35131 whole entry, the tested form may be a part) above

With “AtMUB3 (74-82) (from UniProt Q9SW27 74-82)”, the Surface area (Å^2) in assay [1] was 288 Å^2. Besides, the Delta G in assay [2] is -5.

B1: AtMUB3 (Arabidopsis thaliana Membrane-anchored Ubiquitin-fold protein 3), 6xHIS-tagged (other, UniProt Q9SW27 1-118, looked up)
chain: MPEEESIDIKFRLYDGSDIGPFRYSAASTVDFLKQRVVSDWPKGKTVVPKGINEVKLISSGKILENNKTVGQCKTPFGDIAGGVIVMHVVVQPSLAKSKTEKKVDKAPKAVICTCTIL
notes: Expressed in E. coli, so not prenylated; An N-terminal 6xHIS AtMUB3 is also described; also called AtMUB3-His; not shown: C-terminal 6xHIS tag from pET28b
For B1, in assay [3], the Ka turned out to be 3.53e+06 M⁻¹, the Kd is 283 nM, the ΔH is -8.84 kcal/mol and the ΔS was 0.331 cal/mol/deg.

B2: HsMUB (Homo sapiens Membrane-anchored Ubiquitin-fold protein), C-terminal 6xHIS (other)
chain: MSSNVPADMINLRLILVSGKTKEFLFSPNDSASDIAKHVYDNWPMDWEEEQVSSPNILRLIYQGRFLHGNVTLGALKLPFGKTTVMHLVARETLPEPNSQGQRNREKTGESNCCVIL
notes: The coding region was cloned with the stop codon removed; also called Ubl3; human MUB; not shown: C-terminal 6xHIS tag from pET28b
As to B2, in assay [4], the Ki came to 220 nM.
